Data published in patent US20250019426A1 (UCT BIOSCIENCE, published 2025).

Assays:
[1] = biological target: T1, recombinant GRP78 protein (human, UniProt P11021 19-650, limits assumed); assay: Biacore SPR, multi-cycle kinetics, GRP78 amine-coupled to the chip, G2D03 as analyte 0.625-10 nM, 1:1 fit
T1 construct: also called HSPA5/GRP78 (Active Protein) Human Protein (ORIGENE, Cat. No. AR03021PU-L); glucose-regulated protein 78
Description: (§1) This ligand has the optimum pH 4.0 condition for direct immobilization by pH scouting test. With amine coupling method, carboxyl groups on the surface of the sensor chip surface are first activated with a mixture of EDC and NHS to give reactive succinimide esters. GRP78 is then passed over the surface and the esters react with primary amine groups to link the ligand covalently to the dextran matrix. The target level of the GRP78 protein is about 300 RU.
(§2) For the multi-cycle kinetics analysis, the chip surface level is 291.2 RU and the analyte concentration is used for the moderate Rₘₐₓ, which is running through the conditions in the assay. The concentrations of the anti-GRP78 antibody G2D03 are: 0.625 nM, 1.25 nM, 2.5 nM, 5 nM and 10 nM. Set the flow rate at 30 μL/min. Association time is 120 seconds. Dissociation time is 360 seconds. Regeneration buffer is performed using 10 mM glycine-HCl pH 1.7. […] The binding affinity of the anti-GRP78 antibody G2D03 is better than the conventional anti-GRP78 antibody C38.

[2] = biological target: T1, recombinant GRP78 protein; assay: Biacore SPR, multi-cycle kinetics, GRP78 amine-coupled to the chip, G2D03 as analyte 0.625-10 nM, 1:1 fit, kd/ka
Description: as §1, §2

T1 sequence (P11021 19-650 limits assumed): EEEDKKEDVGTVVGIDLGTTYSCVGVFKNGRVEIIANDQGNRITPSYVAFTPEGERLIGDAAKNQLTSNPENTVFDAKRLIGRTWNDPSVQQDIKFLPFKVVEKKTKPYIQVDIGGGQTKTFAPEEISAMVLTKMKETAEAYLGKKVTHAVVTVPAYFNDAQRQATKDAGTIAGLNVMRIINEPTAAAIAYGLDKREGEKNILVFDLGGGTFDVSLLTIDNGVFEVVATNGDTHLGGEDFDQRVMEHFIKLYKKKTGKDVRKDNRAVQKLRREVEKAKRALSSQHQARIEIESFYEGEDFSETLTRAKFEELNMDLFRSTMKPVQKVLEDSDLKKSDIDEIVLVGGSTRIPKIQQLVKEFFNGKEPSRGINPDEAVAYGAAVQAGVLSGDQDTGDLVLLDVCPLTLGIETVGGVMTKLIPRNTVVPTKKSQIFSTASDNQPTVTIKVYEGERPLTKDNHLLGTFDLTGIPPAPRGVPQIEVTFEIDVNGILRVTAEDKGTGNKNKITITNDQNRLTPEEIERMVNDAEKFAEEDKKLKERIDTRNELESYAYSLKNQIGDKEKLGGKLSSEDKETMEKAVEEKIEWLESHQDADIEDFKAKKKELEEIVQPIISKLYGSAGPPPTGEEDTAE

koff [1]: 0.000254 s⁻¹ | kon [1]: 3.42e+06 M⁻¹ s⁻¹ | Kd [2]: 74.4 pM
B1: anti-GRP78 antibody G2D03 (antibody, V domains shown)
VH: EVQLVESGGGLVQPGGSLRLSCAASGFTFSQYAMAWVRQAPGKGLEWVSGISPYGSNTRYADSVKGRFTISRDNSKNTLYLQMNSLRAEDTAVYYCARNGGYSYTWFDLWGQGTLVTVSS
VL: DIQMTQSPSSLSASVGDRVTITCRASQSISSDLAWYQQKPGKAPKLLIYWASKLQSGVPSRFSGSGSGTDFTLTISSLQPEDFATYYCMQMYNTPPTFGQGTKVEIKR
notes: Detected with anti-human IgG; also called G2D03 mAb; anti-GRP78 monoclonal antibody (G2D03)
